For 16 molecules, Kd, koff and kon results are on record in US20220041744A1 (INNATE PHARMA, published 2022).

The labels stand for the following.
B1: H2L2 (antibody, human IgG1, V domains shown)
VH: QIQLVQSGAEVKKPGASVKVSCKASGYAFTSYNMYWVRQAPGQSLEWMGYIDPYNGGSSYNLTFKGRVTITVDKSASTAYMELSSLRSEDTAVYYCARGYGNYKAWFAYWGQGTLVTVSS
VL: DIQMTQSPSSLSASVGDRVTITCKASQSVSNDVAWYQQKPGKAPKLLIYYASTRYTGVPDRFSGSGYGTDFTFTISSLQPEDIATYYCQQDYSSLTFGQGTKLEIK
B2: H4L0 (antibody, human IgG1, V domains shown)
VH: QIQLVQSGAEVKKPGASVKVSCKASGYAFASYNMYWVRQAPGQSLEWIGYIDPYNGGSSYNLTFKGKATLTVDKSASTAYMELSSLRSEDTAVYYCARGYGNYKAWFAYWGQGTLVTVSS
VL: DIQMTQSPSSLSASVGDRVTITCKASQSVSNDVAWYQQKPGKAPKLLIYYASTRYTGVPSRFSGSGSGTDFTFTISSLQPEDIATYYCQQDYSSLTFGQGTKLEIK
notes: L0 VL limits counted by alignment with L1
B3: H4L3 (antibody, human IgG1, V domains shown)
VH: QIQLVQSGAEVKKPGASVKVSCKASGYAFASYNMYWVRQAPGQSLEWIGYIDPYNGGSSYNLTFKGKATLTVDKSASTAYMELSSLRSEDTAVYYCARGYGNYKAWFAYWGQGTLVTVSS
VL: DVQMTQSPSSLSASVGDRVTITCKASQSVSNDVAWYQQKPGKAPKLLIYYASTRYTGVPDRFSGSGYGTDFTFTISSLQPEDIATYYCQQDYSSLTFGQGTKLEIK
B4: H2L4 (antibody, human IgG1, V domains shown)
VH: QIQLVQSGAEVKKPGASVKVSCKASGYAFTSYNMYWVRQAPGQSLEWMGYIDPYNGGSSYNLTFKGRVTITVDKSASTAYMELSSLRSEDTAVYYCARGYGNYKAWFAYWGQGTLVTVSS
VL: DVQMTQSPSSLSASVGDRVTITCKASQSVSNDVAWYQQKPGKAPKLLIYYASTRYTGVPDRFSGSGYGTDFTFTISSLQPEDIATYFCQQDYSSLTFGQGTKLEIK
B5: H3L3 (antibody, human IgG1, V domains shown)
VH: QIQLVQSGAEVKKPGASVKVSCKASGYAFTSYNMYWVRQAPGQSLEWIGYIDPYNGGSSYNLTFKGKATITVDKSASTAYMELSSLRSEDTAVYYCARGYGNYKAWFAYWGQGTLVTVSS
VL: DVQMTQSPSSLSASVGDRVTITCKASQSVSNDVAWYQQKPGKAPKLLIYYASTRYTGVPDRFSGSGYGTDFTFTISSLQPEDIATYYCQQDYSSLTFGQGTKLEIK
B6: H1L4 (antibody, human IgG1, V domains shown)
VH: QIQLVQSGAEVKKPGASVKVSCKASGYTFTSYNMYWVRQAPGQRLEWMGYIDPYNGGSSYNLTFKGRVTITRDKSASTAYMELSSLRSEDTAVYYCARGYGNYKAWFAYWGQGTLVTVSS
VL: DVQMTQSPSSLSASVGDRVTITCKASQSVSNDVAWYQQKPGKAPKLLIYYASTRYTGVPDRFSGSGYGTDFTFTISSLQPEDIATYFCQQDYSSLTFGQGTKLEIK
B7: H0L4 (antibody, human IgG1, V domains shown)
VH: QVQLVQSGAEVKKPGASVKVSCKASGYTFTSYNMYWVRQAPGQRLEWMGYIDPYNGGSSYNLTFKGRVTITRDTSASTAYMELSSLRSEDTAVYYCARGYGNYKAWFAYWGQGTLVTVSS
VL: DVQMTQSPSSLSASVGDRVTITCKASQSVSNDVAWYQQKPGKAPKLLIYYASTRYTGVPDRFSGSGYGTDFTFTISSLQPEDIATYFCQQDYSSLTFGQGTKLEIK
notes: H0 VH limits counted by alignment with H1
B8: H3L2 (antibody, human IgG1, V domains shown)
VH: QIQLVQSGAEVKKPGASVKVSCKASGYAFTSYNMYWVRQAPGQSLEWIGYIDPYNGGSSYNLTFKGKATITVDKSASTAYMELSSLRSEDTAVYYCARGYGNYKAWFAYWGQGTLVTVSS
VL: DIQMTQSPSSLSASVGDRVTITCKASQSVSNDVAWYQQKPGKAPKLLIYYASTRYTGVPDRFSGSGYGTDFTFTISSLQPEDIATYYCQQDYSSLTFGQGTKLEIK
B9: H1L3 (antibody, human IgG1, V domains shown)
VH: QIQLVQSGAEVKKPGASVKVSCKASGYTFTSYNMYWVRQAPGQRLEWMGYIDPYNGGSSYNLTFKGRVTITRDKSASTAYMELSSLRSEDTAVYYCARGYGNYKAWFAYWGQGTLVTVSS
VL: DVQMTQSPSSLSASVGDRVTITCKASQSVSNDVAWYQQKPGKAPKLLIYYASTRYTGVPDRFSGSGYGTDFTFTISSLQPEDIATYYCQQDYSSLTFGQGTKLEIK
B10: H3L4 (antibody, human IgG1, V domains shown)
VH: QIQLVQSGAEVKKPGASVKVSCKASGYAFTSYNMYWVRQAPGQSLEWIGYIDPYNGGSSYNLTFKGKATITVDKSASTAYMELSSLRSEDTAVYYCARGYGNYKAWFAYWGQGTLVTVSS
VL: DVQMTQSPSSLSASVGDRVTITCKASQSVSNDVAWYQQKPGKAPKLLIYYASTRYTGVPDRFSGSGYGTDFTFTISSLQPEDIATYFCQQDYSSLTFGQGTKLEIK
B11: H4L2 (antibody, human IgG1, V domains shown)
VH: QIQLVQSGAEVKKPGASVKVSCKASGYAFASYNMYWVRQAPGQSLEWIGYIDPYNGGSSYNLTFKGKATLTVDKSASTAYMELSSLRSEDTAVYYCARGYGNYKAWFAYWGQGTLVTVSS
VL: DIQMTQSPSSLSASVGDRVTITCKASQSVSNDVAWYQQKPGKAPKLLIYYASTRYTGVPDRFSGSGYGTDFTFTISSLQPEDIATYYCQQDYSSLTFGQGTKLEIK
B12: H0L1 (antibody, human IgG1, V domains shown)
VH: QVQLVQSGAEVKKPGASVKVSCKASGYTFTSYNMYWVRQAPGQRLEWMGYIDPYNGGSSYNLTFKGRVTITRDTSASTAYMELSSLRSEDTAVYYCARGYGNYKAWFAYWGQGTLVTVSS
VL: DIQMTQSPSSLSASVGDRVTITCKASQSVSNDVAWYQQKPGKAPKLLIYYASTRYTGVPSRFSGSGYGTDFTFTISSLQPEDIATYYCQQDYSSLTFGQGTKLEIK
notes: as for B7
B13: H0L0 (antibody, human IgG1, V domains shown)
VH: QVQLVQSGAEVKKPGASVKVSCKASGYTFTSYNMYWVRQAPGQRLEWMGYIDPYNGGSSYNLTFKGRVTITRDTSASTAYMELSSLRSEDTAVYYCARGYGNYKAWFAYWGQGTLVTVSS
VL: DIQMTQSPSSLSASVGDRVTITCKASQSVSNDVAWYQQKPGKAPKLLIYYASTRYTGVPSRFSGSGSGTDFTFTISSLQPEDIATYYCQQDYSSLTFGQGTKLEIK
notes: variable-domain limits counted by alignment with H1 and L1
B14: H2L3 (antibody, human IgG1, V domains shown)
VH: QIQLVQSGAEVKKPGASVKVSCKASGYAFTSYNMYWVRQAPGQSLEWMGYIDPYNGGSSYNLTFKGRVTITVDKSASTAYMELSSLRSEDTAVYYCARGYGNYKAWFAYWGQGTLVTVSS
VL: DVQMTQSPSSLSASVGDRVTITCKASQSVSNDVAWYQQKPGKAPKLLIYYASTRYTGVPDRFSGSGYGTDFTFTISSLQPEDIATYYCQQDYSSLTFGQGTKLEIK
B15: H0L2 (antibody, human IgG1, V domains shown)
VH: QVQLVQSGAEVKKPGASVKVSCKASGYTFTSYNMYWVRQAPGQRLEWMGYIDPYNGGSSYNLTFKGRVTITRDTSASTAYMELSSLRSEDTAVYYCARGYGNYKAWFAYWGQGTLVTVSS
VL: DIQMTQSPSSLSASVGDRVTITCKASQSVSNDVAWYQQKPGKAPKLLIYYASTRYTGVPDRFSGSGYGTDFTFTISSLQPEDIATYYCQQDYSSLTFGQGTKLEIK
notes: as for B7
B16: H0L3 (antibody, human IgG1, V domains shown)
VH: QVQLVQSGAEVKKPGASVKVSCKASGYTFTSYNMYWVRQAPGQRLEWMGYIDPYNGGSSYNLTFKGRVTITRDTSASTAYMELSSLRSEDTAVYYCARGYGNYKAWFAYWGQGTLVTVSS
VL: DVQMTQSPSSLSASVGDRVTITCKASQSVSNDVAWYQQKPGKAPKLLIYYASTRYTGVPDRFSGSGYGTDFTFTISSLQPEDIATYYCQQDYSSLTFGQGTKLEIK
notes: as for B7

The assay concerns the target T1, human recombinant soluble CD73 protein (human, UniProt P21589 27-547).
T1 construct: also called huCD73; rhCD73
T1 sequence: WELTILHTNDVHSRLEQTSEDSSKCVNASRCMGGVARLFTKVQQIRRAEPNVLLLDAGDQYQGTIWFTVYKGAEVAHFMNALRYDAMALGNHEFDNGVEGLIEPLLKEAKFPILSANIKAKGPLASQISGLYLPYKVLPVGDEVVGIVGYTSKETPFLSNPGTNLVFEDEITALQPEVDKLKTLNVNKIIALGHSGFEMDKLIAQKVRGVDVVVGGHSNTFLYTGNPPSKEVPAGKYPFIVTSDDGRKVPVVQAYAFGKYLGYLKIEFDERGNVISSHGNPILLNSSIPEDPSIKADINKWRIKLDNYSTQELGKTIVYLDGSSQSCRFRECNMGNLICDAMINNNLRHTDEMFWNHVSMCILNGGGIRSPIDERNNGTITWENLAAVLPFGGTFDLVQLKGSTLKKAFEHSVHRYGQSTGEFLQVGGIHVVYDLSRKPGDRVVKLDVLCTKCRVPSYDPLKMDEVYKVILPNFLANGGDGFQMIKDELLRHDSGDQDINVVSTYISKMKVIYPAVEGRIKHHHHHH
In words: SPR, Ab captured on Protein A, soluble huCD73 as analyte. As to the method: SPR measurements were performed on a Biacore™ T200 apparatus at 25° C. Protein-A (GE Healthcare) was immobilized on a Sensor Chip CM5 (GE Healthcare). […] The entire sensorgram sets were fitted using the 1:1 kinetic binding model. Bivalent affinities and kinetic association and dissociation rate constants are calculated.
The binding of the antibodies in Table 2 of Example 1 were tested for binding to human soluble dimeric CD73 proteins and were cloned, produced and purified. Affinity and association and dissociation constants of humanized variants were assessed by SPR analysis.
Consider B1, for which the Kd worked out at 1300 pM, the koff was determined as 0.000155 s⁻¹ and the on-rate (kon) amounted to 118000 M⁻¹ s⁻¹.

B2: the Kd was 7800 pM, the koff is 0.00123 s⁻¹ and the kon turned out to be 158000 M⁻¹ s⁻¹.

Regarding B3, the dissociation constant Kd is 700 pM, the dissociation rate constant (koff) worked out at 7.69e-05 s⁻¹ and the kon was determined as 110000 M⁻¹ s⁻¹.

As to B4, the Kd was determined as 900 pM, the dissociation rate constant (koff) amounted to 0.000106 s⁻¹ and the on-rate (kon) came to 120000 M⁻¹ s⁻¹.

Consider B5, for which the Kd was 1100 pM, the koff is 0.000105 s⁻¹ and the association rate constant (kon) amounted to 95700 M⁻¹ s⁻¹.

For B6, the Kd was determined as 700 pM, the koff came out at 6.77e-05 s⁻¹ and the kon was determined as 98200 M⁻¹ s⁻¹.

For B7, the dissociation constant Kd came to 600 pM, the dissociation rate constant (koff) was found to be 8.65e-05 s⁻¹ and the association rate constant (kon) is 137000 M⁻¹ s⁻¹.

Turning to B8, the Kd amounted to 1400 pM, the off-rate constant (koff) is 0.000122 s⁻¹ and the kon amounted to 86600 M⁻¹ s⁻¹.

Take B9: the Kd turned out to be 800 pM, the off-rate (koff) turned out to be 7.2e-05 s⁻¹ and the kon was determined as 92600 M⁻¹ s⁻¹.

As for B10, the dissociation constant Kd was 1000 pM, the dissociation rate constant (koff) amounted to 8.91e-05 s⁻¹ and the kon was determined as 90400 M⁻¹ s⁻¹.

With B11, the Kd came out at 900 pM, the koff came out at 7.12e-05 s⁻¹ and the association rate constant (kon) turned out to be 77500 M⁻¹ s⁻¹.

For the molecule B12, the Kd amounted to 900 pM, the off-rate (koff) was found to be 0.000127 s⁻¹ and the on-rate constant (kon) came to 144000 M⁻¹ s⁻¹.

For B13, the Kd is 65000 pM, the off-rate constant (koff) was 0.00882 s⁻¹ and the kon turned out to be 136000 M⁻¹ s⁻¹.

For B14, the Kd was found to be 1000 pM, the koff worked out at 0.000123 s⁻¹ and the kon came to 120000 M⁻¹ s⁻¹.

In the case of B15, the equilibrium dissociation constant (Kd) is 700 pM, the koff was 0.000119 s⁻¹ and the kon worked out at 168000 M⁻¹ s⁻¹.

As for B16, the dissociation constant (Kd) was 600 pM, the koff was 9.49e-05 s⁻¹ and the on-rate (kon) turned out to be 170000 M⁻¹ s⁻¹.
